The results in this text go back to publication PMC6637133, “SPRTN protease and checkpoint kinase 1 cross-activation loop safeguards DNA replication” (Nature Communications, 2019).

In this assay the target is T1, recombinant His6-tagged SPRTN (human, UniProt Q9H040 1-489).
T1 construct: SPRTN metalloprotease, human; The methods of this pull-down are not described; also called purified SPRTN; source: recombinant, purified in house from E. coli
T1 sequence (looked up): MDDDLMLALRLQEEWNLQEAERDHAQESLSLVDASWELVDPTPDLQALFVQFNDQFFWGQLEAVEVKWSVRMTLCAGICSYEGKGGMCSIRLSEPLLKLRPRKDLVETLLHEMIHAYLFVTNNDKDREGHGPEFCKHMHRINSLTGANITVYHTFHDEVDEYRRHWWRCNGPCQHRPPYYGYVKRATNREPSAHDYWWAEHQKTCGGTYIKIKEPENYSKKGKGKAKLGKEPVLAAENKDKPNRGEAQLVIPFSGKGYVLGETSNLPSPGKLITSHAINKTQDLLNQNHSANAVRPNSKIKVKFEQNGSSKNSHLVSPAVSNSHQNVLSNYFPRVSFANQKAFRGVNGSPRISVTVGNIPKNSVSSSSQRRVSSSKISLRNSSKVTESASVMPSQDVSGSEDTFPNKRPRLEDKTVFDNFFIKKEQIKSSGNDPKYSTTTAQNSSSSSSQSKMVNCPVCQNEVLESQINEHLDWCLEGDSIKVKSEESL
The experiment in a line: pull-down; recombinant His6-tagged SPRTN held on Ni-NTA beads, purified CHK1 co-precipitated; immunoblot. The conditions noted are these: both partners purified. (In general: A western blot detects proteins with antibodies after separation by electrophoresis.)

B1: Purified CHK1 (enzyme, human, UniProt O14757 1-476, looked up)
chain: MAVPFVEDWDLVQTLGEGAYGEVQLAVNRVTEEAVAVKIVDMKRAVDCPENIKKEICINKMLNHENVVKFYGHRREGNIQYLFLEYCSGGELFDRIEPDIGMPEPDAQRFFHQLMAGVVYLHGIGITHRDIKPENLLLDERDNLKISDFGLATVFRYNNRERLLNKMCGTLPYVAPELLKRREFHAEPVDVWSCGIVLTAMLAGELPWDQPSDSCQEYSDWKEKKTYLNPWKKIDSAPLALLHKILVENPSARITIPDIKKDRWYNKPLKKGAKRPRVTSGGVSESPSGFSKHIQSNLDFSPVNSASSEENVKYSSSQPEPRTGLSLWDTSPSYIDKLVQGISFSQPTCPDHMLLNSQLLGTPGSSQNPWQRLVKRMTRFFTKLDADKSYQCLKETCEKLGYQWKKSCMNQVTISTTDRRNNKLIFKVNLLEMDDKILVDFRLSKGDGLEFKRHFLKIKGKLIDIVSSQKIWLPAT
notes: checkpoint kinase 1 (CHK1), human
For the molecule B1, the binding result is “binds”.
